Test results published in patent publication US20170226207A1 (Astellas, published 2017).

T1: human Igβ on human B cells (human, UniProt P40259 29-229)
T1 sequence (looked up): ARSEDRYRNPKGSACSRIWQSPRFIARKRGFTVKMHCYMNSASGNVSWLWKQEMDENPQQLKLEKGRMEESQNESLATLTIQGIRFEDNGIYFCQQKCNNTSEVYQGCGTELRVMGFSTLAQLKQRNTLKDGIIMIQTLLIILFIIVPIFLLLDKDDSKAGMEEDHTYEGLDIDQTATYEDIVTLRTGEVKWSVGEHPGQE

T2: monkey Igβ-Flag protein (monkey)
T2 chain: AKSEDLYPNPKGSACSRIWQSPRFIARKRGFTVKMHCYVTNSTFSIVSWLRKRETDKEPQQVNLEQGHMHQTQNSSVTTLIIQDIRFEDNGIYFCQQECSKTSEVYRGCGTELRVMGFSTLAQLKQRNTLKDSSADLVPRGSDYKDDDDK

T3: human Igβ-Flag protein (human, UniProt P40259 29-159, limits assumed)
T3 construct: Expressed in FreeStyle 293 cells, purified from culture supernatant with anti-Flag M2 gel; not shown: Flag tag
T3 sequence (looked up): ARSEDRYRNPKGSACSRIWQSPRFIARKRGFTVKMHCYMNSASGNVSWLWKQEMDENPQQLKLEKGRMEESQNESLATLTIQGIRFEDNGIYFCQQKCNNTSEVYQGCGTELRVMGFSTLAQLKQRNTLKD


Key:
[1] = molecular target: T1, human Igβ on human B cells; experiment: cell-based or functional assay
monkey Igβ-Flag protein = molecular target: T2, monkey Igβ-Flag protein; experiment: antigen ELISA, Igβ-Flag coated on plate, chemiluminescence
Experimental: (§1) In order to measure the antigen binding activity of the humanized antibody, antigen ELISA was used. The human Igβ-Flag protein acquired in Example 1 was prepared with a tris-buffered saline (TBS; Wako Pure Chemical Industries, Ltd.) so as to have a concentration of 5000 ng/mL, added to a NUNC MaxiSorp white 384 plate (Maxisorp 384 plate: Nunc Corporation) by an amount of 15 μL per well, and then solidified at room temperature for 1 hour. The resultant was washed with TBS-T (0.05% Tween-20 containing TBS: Wako Pure Chemical Industries, Ltd.) twice, 120 μL of a blocking agent (Blocking One: Nacalai tesque, Inc.) was added thereto, the resultant was left at room temperature for 1 hour, and the solution was removed. A dilution series (8 steps with a final concentration of 0.46 ng/mL to 1 μg/mL) of respective humanized antibodies obtained in Example 3 was prepared using a dilute solution obtained by adding the same amount of the blocking agent and TBS and then added thereto by an amount of 15 μL. The resultant was left at room temperature for 1 hour, washed with a TBS-T washing liquid three times, and 20 μL of an horseradish peroxidase (HRP)-labeled rabbit anti-human Ig antibody (Dako Ltd.) which had been diluted 3000-fold with a diluted solution was added thereto. Thereafter, the resultant was left at room temperature for 1 hour and then washed with a TBS-T washing liquid three times. Next, 30 μL of BM-Chemiluminescence ELISA Substrate (POD) (Roche Diagnostics Inc.) which is a chemiluminescence detection reagent was added thereto, and the amount of chemiluminescence thereof was measured by an EnVision counter (PerkinElmer, Co., Ltd.). Using the same method, antigen ELISA assay was performed using the monkey Igβ-Flag protein acquired in Example 1. When the binding activities in respective concentrations of the test antibodies were calculated, the measuring amount of a well to which a test antibody was not added was set to 0% and the convergence value of the maximum activity of the test antibody was set to 100%. The calculated binding activities were analyzed and the EC50 values of the test antibodies were calculated by fitting a curve.

human Igβ-Flag protein = molecular target: T3, human Igβ-Flag protein; experiment: as above
Experimental: as §1

proliferation rate of human B cells (anti-IgM antibody-induced) at 30 µg/mL antibody [1] [%] | EC50 (monkey Igβ-Flag protein) [µg/mL] | EC50 (human Igβ-Flag protein) [µg/mL] | Binder
2.8 | 0.183 | 0.128 | humanized antibody CL6_40m12_DDW (antibody, human IgG1, kappa, V domains shown, Humanized anti-human Igβ antibody) VH: EVQMVESGGGLVQPGGSLRLSCAVSGFSLSSYSVHWVRQAPGKGLEWVAGIWSGGSIHYTPALSSRFTVSRDDSKNTVYLQMNSLRAEDTAVYYCARYDRYETYAMDYWGQGTLVTVSS VL: DIQLTQSPSSLSASVGDRVTITCKASQSVDYDGDSYMNWYQQKPGKAPKLLIYAASNLESGVPSRFSGSGSGTDFTLTISSLQPEDFATYYCQQSNEDPLTFGQGTKVEIKR
20.2 | 0.106 | 0.1 | humanized antibody CL6_40m14_DDW (antibody, human IgG1, kappa, V domains shown, pyroglutamylation at the N terminal of the heavy chain in most of the purified antibody (glutamine of amino acid number 1 modified to pyroglutamic acid), Humanized anti-human Igβ antibody) VH: QVQMQESGPGLVRPSQTLSLTCTVSGFSLSSYSVHWVRQPPGRGLEWIGGIWSGGSIHYTPALSSRVTVLRDTSKNQVSLRLSSVTAADTAVYYCARYDRYETYAMDYWGQGSLVTVSS VL: DIQLTQSPSSLSASVGDRVTITCKASQSVDYDGDSYMNWYQQKPGKAPKLLIYAASNLESGVPSRFSGSGSGTDFTFTISSLQPEDIATYYCQQSNEDPLTFGQGTKVEIKR
23.2 | 0.118 | 0.132 | humanized antibody CL6_40m16_DDW (antibody, human IgG1, kappa, V domains shown, Humanized anti-human Igβ antibody) VH: EVQLVESGGGLVQPGGSLRLSCAVSGFSLSSYSVHWFRKAPGKGLEWLGGIWSGGSIHYTPALSSRLTVSRDISKNTVYLQMNSLRAEDTAVYYCARYDRYETYAMDYWGQGTLVTVSS VL: DIVLTQSPSSLSASVGDRVTITCKASQSVDYDGDSYMNWYQQKPGKAPKLLIYAASNLESGVPSRFSGSGSGTDFTLTISSLQPEDFATYYCQQSNEDPLTFGQGTKVEIKR
